The source of these data is patent US20230374148A1, “BINDING MOLECULES THAT MULTIMERISE CD45” (UCB BIOPHARMA SRL, priority 2020, published 2023).

The subject of experiment [1] is Human whole blood. Nature of the experiment: Apoptosis of lymphocytes in whole blood. The class given is cell-based. The conditions noted are these: 5 hrs. On the procedure:
Human whole blood (Lithium heparin tubes) was taken from two donors (HTA #051119-01 & #051119-02) at UCB Pharma Slough, UK according to approved ethical sample collection protocol.
In a Greiner 96-well non-binding microplate, Fab-X and Fab-Y combinations 6294-X/4133-Y and NegCtrl-X/4133-Y, were added to PBS to give a Fab-KD-Fab concentration of 2750 nM. Similarly, a 2750 nM stock of 4133-6294 BYbe in PBS was prepared. The microplate was incubated for 1 hr at 37° C., 5% CO2. Following the incubation, Fab-KD-Fab and BYbe reagents were then serially diluted in PBS 1 in 5, nine times to produce to form a 10-point dose curve.
5 μl of each Fab-KD-Fab or BYbe dilution was added to Nunc™ 96-Well Polypropylene DeepWell™ plates (ThermoFisher). Then 50 μl of blood was added to each well, the plate gently mixed and sealed with a plate seal that allows gas exchange. These cells were then incubated for 5 hrs at 37° C., 5% CO2. Running the assay for a short time period avoids the need to add an anti-coagulant.
Following the incubation, 950 μl of BD Phosflow BD Lyse/Fix (cat no. BD558049, FisherScientific) was added to each well and the plate incubated at 37° C., 5% CO2 for 10 minutes. The plate was then spun at 500 g for 8 min, at 4° C. The buffer was aspirated and 1 ml of FACS buffer (PBS+1% bovine serum albumin (BSA)+0.1% NaN3+2 mM EDTA, Sigma Aldrich) added to wash cells using an Integra Viaflo 96 channel pipette. The plate was spun at 500 g for 8 min, at 4° C. As before, the buffer was aspirated and 1 ml of FACS buffer added to wash cells. This was followed by a slower spin at 250 g for 10 min, at 4° C. Again, buffer was aspirated and 1 ml of FACS buffer added to wash cells.
The plate was re-spun at 500 g for 8 min, at 4° C. Buffer was aspirated leaving the cells in a minimal residual volume for cell-specific antibody staining. 20 μl of cell-specific antibody cocktail (shown in Table 7 below) was added to the wells and the plate incubated for 1 hr at 4° C.
Following the incubation with the antibody cocktail, cells were washed twice as outlined above and buffer aspirated to leave the cells in 20 μl residual buffer. 20 μl of FACS buffer was then added to samples to dilute the cells. Cells were analysed live using the Intellicyt iQue Screener PLUS. Live cell counts were extracted as metrics and graphical representations generated using Graphpad Prism version 8.1 (Graphpad). Asymmetric (five parameter) curve fitting was applied to derive maximal % cell reduction and EC50 values.

The test system of experiment [2] is CD34+ stem cells in PBMCs. Nature of the experiment: Apoptosis of peripheral blood haematopoietic stem cells in PBMCs. Type of experiment: cell-based, human. The conditions noted are these: 24 hrs, 200-0.00632 nM. The procedure:
Human whole blood (K2EDTA tubes) was received from one donor (#PR20T386505, from Cambridge Bioscience, UK). PBMCs were isolated from whole blood using pre-filled LeucoSep tubes (Greiner). Whole blood was layered on to the LeucoSep filter and tubes spun (800 g, 15 min, slow acceleration and deceleration, at RT). The buffy coat was extracted and cells washed twice in sterile PBS. PBMC were resuspended in 50 ml complete media (RPMI 1640+2 mM GlutaMAX+1% Pen/Strep, all previously supplied by Invitrogen, +10% Fetal Bovine Serum (FBS), Sigma Aldrich). Cells were counted using a ChemoMetec NucleoCounter NC-3000. 1×10^6 cells per well in 80 μl were then added to each well of a Corning Costar 96-well, cell culture treated, U-shaped-bottom microplate (cat no. 07-200-95).
In a Greiner 96-well non-binding microplate, Fab-X and Fab-Y combination 6294-X/4133-Y, was added to complete media to give a Fab-KD-Fab concentration of 1000 nM. Similarly, 1000 nM stocks of 4133-6294 BYbe and NegCtrl BYbe were prepared in complete media. The microplate was incubated for 1 hr at 37° C., 5% CO2. Following the incubation, Fab-KD-Fab and BYbe reagents were then serially diluted in complete media in a half log dilution series, 7 times to produce an 8-point dose curve. […]
Cells were analysed using the Bio-Rad ZE5 Cell Analyzer. […]

B1: 4133-6294 BYbe: anti-CD45 BYbe (Fab-scFv): 4133 Fab HC-G4S linker-6294 scFv heavy chain paired with 4133 light chain (antibody)
heavy: QEQLVESGGGLVQPEGSLTLTCTASGFSFSGNYYMCWVRQAPGKGLEWIGCLYTGSSGSTYYASWAKGRFTISKTSSTTVTLQMTSLTAADTATYFCARDLGYEIDGYGGLWGQGTLVTVSSGQPKAPSVFPLAPCCGDTPSSTVTLGCLVKGYLPEPVTVTWNSGTLTNGVRTFPSVRQSSGLYSLSSVVSVTSSSQPVTCNVAHPATNTKVDKTVAPSTCSKPGGGGSGGGGSEVQLVESGAELARPGASVKMSCKASGYTFTSYTMHWVKQRPGQCLEWIGYINPSSGYTEYNQKFKDKTTLTADKSSSTAYLQLSSLTSEDSAVYYCARVGDGFYPSWLAYWGQGTLVTVSSGGGGSGGGGSGGGGSGGGGSDIQMTQSPKFLLVSAGDRVTITCKASQSVRNDVAWYQQKPGQSPKLLIFYASKRYTGVPDRFTGSGYGTDFTFTISTVQAEDLAVYFCQQDYSSPTTFGCGTKLEIK
light: AQVLTQTPSPVSAVVGGTVSISCQASQSVYNNNNLSWYQQKPGQPPKLLIYDASKLASGVPSRFKGSGSGTQFTLTISGVQCDDAATYYCLGGYYSSGWYFAFGGGTKVVVKRTPVAPTVLIFPPAADQVATGTVTIVCVANKYFPDVTVTWEVDGTTQTTGIENSKTPQNSADCTYNLSSTLTLTSTQYNSHKEYTCKVTQGTTSVVQSFNRGDC
As for B1, the Max % reduction came to 50% in experiment [1] (CD4+, Donor 1, whole blood); 54% in experiment [1] (CD4+, Donor 2, whole blood); 34% in experiment [1] (Total lymphocytes, Donor 1, whole blood); 44% in experiment [1] (Total lymphocytes, Donor 2, whole blood). The “reductions in CD34+ stem cells” value in experiment [2] stood at 53%. Further, the “reductions in total lymphocytes” value in experiment [2] turned out to be 98%.
